Source: patent US20110008766A1 (AbbVie / Abbott, published 2011)

Assays:
[1] = target: T1, neutrophil gelatinase associated lipocalin (NGAL) (UniProt P80188 21-198); experiment: FRET quenching titration in solution; one value given for outer and inner domain
T1 construct: also called recombinant NGAL
Procedure: (§1) Briefly, the dissociation constants for the outer variable binding domain and the inner variable binding domain of a given DVD-Ig and its corresponding antigen were measured in direct binding experiments. […] After 30 minutes of incubation, all samples were measured on an SLM 8100 photon counting spectrofluorimeter. Samples were excited at 480 nm, and the emission was collected through a 530 nm (30 nm bandwidth) interference filter (Chroma Technology Corp., Rockingham, Vt.). All binding measurements were performed in 10 mM HEPES buffer, pH 7.4, containing 0.15 M NaCl, 3 mM EDTA, and 0.005% surfactant P20.
(§2) where Ligandₜₒₜₐₗ and ABSₜₒₜₐₗ are the -antigen concentrations and the total DVD-Ig binding sites for that antigen, respectively, and Fbound is the fraction of bound antigen. The binding data were fitted with a simple binding model to obtain the equilibrium dissociation constant (KD) according to equation [2]: […]

interleukin 18 (IL-18) = target: T2, interleukin 18 (IL-18) (UniProt Q14116 37-193); experiment: FRET quenching titration in solution; outer domain (IL-18 1-4091); outer domain (IL-18 1-4091)
T2 construct: ALEXA Fluor 488-labelled in the FRET assay
Procedure: as §1, §2

[2] = target: T1, neutrophil gelatinase associated …; experiment: FRET quenching titration in solution; ALEXA 488-antigen, BHQ-labelled binder
Procedure: as §1, §2

[3] = target: T3, brain natriuretic peptide (BNP) (UniProt P16860 103-134); experiment: FRET quenching titration in solution; one value given for outer and inner domain
T3 construct: ALEXA Fluor 488-labelled in the FRET assay
Procedure: as §1, §2

[4] = target: T3, brain natriuretic peptide (BNP); experiment: FRET quenching titration in solution; ALEXA 488-antigen, BHQ-labelled binder
Procedure: as §1, §2

[5] = target: T1, neutrophil gelatinase associated …; experiment: FRET quenching titration in solution; one value printed for outer (2322) and inner (903) domain
Procedure: as §1, §2

[6] = target: T1, neutrophil gelatinase associated …; experiment: FRET quenching titration in solution; inner domain (NGAL 1-2322-455); inner domain (NGAL 1-2322-455)
Procedure: as §1, §2

T1 sequence (P80188 21-198 limits assumed): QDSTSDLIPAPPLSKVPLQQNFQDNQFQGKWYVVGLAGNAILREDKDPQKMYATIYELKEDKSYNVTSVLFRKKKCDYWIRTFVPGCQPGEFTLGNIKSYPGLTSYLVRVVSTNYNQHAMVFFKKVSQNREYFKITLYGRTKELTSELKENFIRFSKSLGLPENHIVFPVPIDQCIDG

B1: DVD720 (antibody)
VH: EVQLVESGGGLVQPGGSLKLSCAASGFTFNNYYMSWVRQTPERRLEWVAYISSSGGSTYYSDSVRGRFTISRDTARNTLYLQMTSLKSEDTAMYYCARHFGDYSYFDYWGQGTTLTVSSASTKGPEVQLVESGGGLVQPGGSLKLSCAASGFTFNNYYMSWVRQTPERRLEWVAYISSSGGSTYYSDSVRGRFTISRDTARNTLYLQMTSLKSEDTAMYYCARHFGDYSYFDYWGQGTTLTVSS
VL: DIQMTQSPASLSASVGETVTITCRASENFYSYLAWYQQKQGKSPQLLVYNAKTLAEGVPSRFSGSGSGTQFSLKINSLQPEDFGTYYCQHHYDIPLTFGAGTKLELKRTVAAPDIQMTQSPASLSASVGETVTITCRASENFYSYLAWYQQKQGKSPQLLVYNAKTLAEGVPSRFSGSGSGTQFSLKINSLQPEDFGTYYCQHHYDIPLTFGAGTKLELKR
notes: also called DVD720 (2322-2322-SS)
**Q.** How did the Kd [1] turn out when B1 was run?
**A.** < 0.07 nM

B2: DVD721 (antibody)
VH: KIQLVQSGPELKKPGETVKISCKASGYTFTNYGMNWVKQAPGKGLKWMGWININTGEPTYAEEFKGRFAFSLETSATTAFLQINNLKNEDTATYLCARDSYSGGFDYWGQGTIVTVSSASTKGPSVFPLAPKIQLVQSGPELKKPGETVKISCKASGYTFTNYGMNWVKQAPGKGLKWMGWININTGEPTYAEEFKGRFAFSLETSATTAFLQINNLKNEDTATYLCARDSYSGGFDYWGQGTIVTVSS
VL: DIVMTQSPSSLSVSAGEKVTLSCKSSQSLLISGDQKNYLAWYQQKPGQPPKLLIYGASTRDSGVPDRFTGSGSGADFTLTISSVQAEDLAVYYCQNDHSFPPTFGAGTKLELKRTVAAPSVFIFPPDIVMTQSPSSLSVSAGEKVTLSCKSSQSLLISGDQKNYLAWYQQKPGQPPKLLIYGASTRDSGVPDRFTGSGSGADFTLTISSVQAEDLAVYYCQNDHSFPPTFGAGTKLELKR
notes: also called DVD721 (903-903-LL)
**Q.** With B2 as the binder, how does the Kd [1] read?
**A.** < 0.3 nM

B3: DVD730 (bispecific antibody)
VH: QVQLQQPGSELVRPGASVKLSCKASGYTFTSYWMHWVKQRPGQGLEWIGNIYPGTVNTNYDEKFKNKATLTVDTSSSTAYMLLSSLTSEDSAVYYCTRDYYGGGLNYWGQGTTLTVSSASTKGPEVQLVESGGGLVQPGGSLKLSCAASGFTFNNYYMSWVRQTPERRLEWVAYISSSGGSTYYSDSVRGRFTISRDTARNTLYLQMTSLKSEDTAMYYCARHFGDYSYFDYWGQGTTLTVSS
VL: SIVMTQTPKFLLVSAGDRVTITCKASQSVSNDVAWFQQKPGQSPKLLIYYASNRYAGVPDRFTGSGFGTDFTFTISTVQAEDLAVYFCHQDYSSPRTFGGGTKLEIKRTVAAPDIQMTQSPASLSASVGETVTITCRASENFYSYLAWYQQKQGKSPQLLVYNAKTLAEGVPSRFSGSGSGTQFSLKINSLQPEDFGTYYCQHHYDIPLTFGAGTKLELKR
notes: also called DVD730 (IL18-2322-SS)
**Q.** Which Kd (interleukin 18 (IL-18)) does the source give for B3 here?
**A.** 0.6 nM

B4: AB083 (antibody, V domains shown)
VH: KIQLVQSGPELKKPGETVKISCKASGYTFTNYGMNWVKQAPGKGLKWMGWININTGEPTYAEEFKGRFAFSLETSATTAFLQINNLKNEDTATYLCARDSYSGGFDYWGQGTIVTVSS
VL: DIVMTQSPSSLSVSAGEKVTLSCKSSQSLLISGDQKNYLAWYQQKPGQPPKLLIYGASTRDSGVPDRFTGSGSGADFTLTISSVQAEDLAVYYCQNDHSFPPTFGAGTKLELKR
notes: also called AB083 (903); Chimeric mAb 903
**Q.** B4 was tested. Which Kd [2] did it give?
**A.** 0.7 nM

B5: DVD736 (bispecific antibody)
VH: QVQLQQPGAELVRPGASVKLSCKASGYTFTSYWMNWVKQRPEQGLEWIGRIDPYDSETHYNQKFKDKAILTVDKSSSTAFVQLTSLTSEDSAVYYCVSDGYWGAGTTVTVSSASTKGPSVFPLAPQIQLVQSGPELRKPGETVKISCKGSGYTFTHYGINWVKQTPRKDLKWMGWINTHTGEAYYADDFKGRFAFSLETSANTAYLQINNLNNGDMGTYFCTRSHRFGLDYWGQGTSVTVSS
VL: DVVMTQTPLTLSVTTGQPASISCKSSQSLLDSDGKTYLNWLFQRPGESPKLLIYVVSKLESGVPDRFTGSGSGTDFTLKISRVEAEDLGVYYCLQATHFPWTFGGGTKLEIKRTVAAPSVFIFPPDNVLTQSPPSLAVSLGQRATISCKANWPVDYNGDSYLNWYQQKPGQPPKFLIYAASNLESGIPARFSGSGSGTDFNLNIHPVEEEDAATYYCQQSNEDPFTFGSGTKLEIKR
notes: also called DVD736H/DVD736L
**Q.** Which Kd [3] does the source give for B5 here?
**A.** < 0.03 nM

B6: AB090 (antibody, V domains shown)
VH: QVQLQQPGAELVRPGASVKLSCKASGYTFTSYWMNWVKQRPEQGLEWIGRIDPYDSETHYNQKFKDKAILTVDKSSSTAFVQLTSLTSEDSAVYYCVSDGYWGAGTTVTVSS
VL: DVVMTQTPLTLSVTTGQPASISCKSSQSLLDSDGKTYLNWLFQRPGESPKLLIYVVSKLESGVPDRFTGSGSGTDFTLKISRVEAEDLGVYYCLQATHFPWTFGGGTKLEIKR
notes: also called BNP 3-631-436
**Q.** For B6, which Kd [4] is on record?
**A.** 0.3 nM

B7: DVD723 (bispecific antibody)
VH: EVQLVESGGGLVQPGGSLKLSCAASGFTFNNYYMSWVRQTPERRLEWVAYISSSGGSTYYSDSVRGRFTISRDTARNTLYLQMTSLKSEDTAMYYCARHFGDYSYFDYWGQGTTLTVSSASTKGPSVFPLAPKIQLVQSGPELKKPGETVKISCKASGYTFTNYGMNWVKQAPGKGLKWMGWININTGEPTYAEEFKGRFAFSLETSATTAFLQINNLKNEDTATYLCARDSYSGGFDYWGQGTIVTVSS
VL: DIQMTQSPASLSASVGETVTITCRASENFYSYLAWYQQKQGKSPQLLVYNAKTLAEGVPSRFSGSGSGTQFSLKINSLQPEDFGTYYCQHHYDIPLTFGAGTKLELKRTVAAPSVFIFPPDIVMTQSPSSLSVSAGEKVTLSCKSSQSLLISGDQKNYLAWYQQKPGQPPKLLIYGASTRDSGVPDRFTGSGSGADFTLTISSVQAEDLAVYYCQNDHSFPPTFGAGTKLELKR
notes: also called DVD723 (2322-903-LL)
**Q.** With B7 as the binder, how does the Kd [5] read?
**A.** < 0.2 nM

B8: DVD731 (bispecific antibody)
VH: QVQLQQPGSELVRPGASVKLSCKASGYTFTSYWMHWVKQRPGQGLEWIGNIYPGTVNTNYDEKFKNKATLTVDTSSSTAYMLLSSLTSEDSAVYYCTRDYYGGGLNYWGQGTTLTVSSASTKGPSVFPLAPEVQLVESGGGLVQPGGSLKLSCAASGFTFNNYYMSWVRQTPERRLEWVAYISSSGGSTYYSDSVRGRFTISRDTARNTLYLQMTSLKSEDTAMYYCARHFGDYSYFDYWGQGTTLTVSS
VL: SIVMTQTPKFLLVSAGDRVTITCKASQSVSNDVAWFQQKPGQSPKLLIYYASNRYAGVPDRFTGSGFGTDFTFTISTVQAEDLAVYFCHQDYSSPRTFGGGTKLEIKRTVAAPSVFIFPPDIQMTQSPASLSASVGETVTITCRASENFYSYLAWYQQKQGKSPQLLVYNAKTLAEGVPSRFSGSGSGTQFSLKINSLQPEDFGTYYCQHHYDIPLTFGAGTKLELKR
notes: also called DVD731 (IL18-2322-LL)
**Q.** How did the Kd (interleukin 18 (IL-18)) turn out when B8 was run?
**A.** 0.9 nM

**Q.** And the Kd [6]?
**A.** 0.08 nM

B9: DVD738 (bispecific antibody)
VH: QIQLVQSGPELRKPGETVKISCKGSGYTFTHYGINWVKQTPRKDLKWMGWINTHTGEAYYADDFKGRFAFSLETSANTAYLQINNLNNGDMGTYFCTRSHRFGLDYWGQGTSVTVSSASTKGPSVFPLAPQVQLQQPGAELVRPGASVKLSCKASGYTFTSYWMNWVKQRPEQGLEWIGRIDPYDSETHYNQKFKDKAILTVDKSSSTAFVQLTSLTSEDSAVYYCVSDGYWGAGTTVTVSS
VL: DNVLTQSPPSLAVSLGQRATISCKANWPVDYNGDSYLNWYQQKPGQPPKFLIYAASNLESGIPARFSGSGSGTDFNLNIHPVEEEDAATYYCQQSNEDPFTFGSGTKLEIKRTVAAPSVFIFPPDVVMTQTPLTLSVTTGQPASISCKSSQSLLDSDGKTYLNWLFQRPGESPKLLIYVVSKLESGVPDRFTGSGSGTDFTLKISRVEAEDLGVYYCLQATHFPWTFGGGTKLEIKR
notes: also called DVD738H/DVD738L
**Q.** For B9, which Kd [3] is on record?
**A.** < 0.03 nM

B10: AB082 (antibody, V domains shown)
VH: EVQLVESGGGLVQPGGSLKLSCAASGFTFNNYYMSWVRQTPERRLEWVAYISSSGGSTYYSDSVRGRFTISRDTARNTLYLQMTSLKSEDTAMYYCARHFGDYSYFDYWGQGTTLTVSS
VL: DIQMTQSPASLSASVGETVTITCRASENFYSYLAWYQQKQGKSPQLLVYNAKTLAEGVPSRFSGSGSGTQFSLKINSLQPEDFGTYYCQHHYDIPLTFGAGTKLELKR
notes: also called AB082 (2322); Chimeric mAb 2322
**Q.** How did the Kd [2] turn out when B10 was run?
**A.** < 0.05 nM

B11: DVD719 (antibody)
VH: EVQLVESGGGLVQPGGSLKLSCAASGFTFNNYYMSWVRQTPERRLEWVAYISSSGGSTYYSDSVRGRFTISRDTARNTLYLQMTSLKSEDTAMYYCARHFGDYSYFDYWGQGTTLTVSSASTKGPSVFPLAPEVQLVESGGGLVQPGGSLKLSCAASGFTFNNYYMSWVRQTPERRLEWVAYISSSGGSTYYSDSVRGRFTISRDTARNTLYLQMTSLKSEDTAMYYCARHFGDYSYFDYWGQGTTLTVSS
VL: DIQMTQSPASLSASVGETVTITCRASENFYSYLAWYQQKQGKSPQLLVYNAKTLAEGVPSRFSGSGSGTQFSLKINSLQPEDFGTYYCQHHYDIPLTFGAGTKLELKRTVAAPSVFIFPPDIQMTQSPASLSASVGETVTITCRASENFYSYLAWYQQKQGKSPQLLVYNAKTLAEGVPSRFSGSGSGTQFSLKINSLQPEDFGTYYCQHHYDIPLTFGAGTKLELKR
notes: also called DVD719 (2322-2322-LL)
**Q.** For B11, which Kd [1] is on record?
**A.** < 0.05 nM
